Measured values from PMC5514047.

Target: human ribosomal stalk protein P2 lacking the last 16 amino acids (P2ΔC) (human) (UniProt P05387)
Test: native MS

“human ribosomal stalk protein P2 lacking the last 16 amino acids (P2ΔC) (from UniProt P05387 1-99) (domain or fragment)” was tested. Which stoichiometry N did it give?
Its stoichiometry N is 2.
